# Assay: soluble on expression in E. coli; label from the status in PepcDB or PDB records
row,Sequence,soluble on expression in E. coli
1,GSHMLEFSEWYSDILEKAEIYDVRYPIKGCGVYLPYGFKIRRYTFEIIRNLLDESGHDEALFPMLIPEDLLAKEAEHIKGFEDEVYWVTHGGKTQLDVKLALRPTSETPIYYMMKLWVKVHTDLPIKIYQIVNTFRYETKHTRPLIRLREIMTFKEAHTAHSTKEEAENQVKEAISIYKKFFDTLGIPYLISKRPEWDKFPGAEYTMAFDTIFPDGRTMQIATVHNLGQNFSKTFEIIFETPTGDKDYAYQTCYGISDRVIASIIAIHGDEKGLILPPIVAPIQVVIVPLIFKGKEDIVMEKAKEIYEKLKGKFRVHIDDRDIRPGRKFNDWEIKGVPLRIEVGPKDIENKKITLFRRDTMEKFQVDETQLMEVVEKTLNNIMENIKNRAWEKFENFITILEDINPDEIKNILSEKRGVILVPFKEEIYNEELEEKVEATILGETEYKGNKYIAIAKTY,soluble
2,GSHMSLFDFFKNKGSAATATDRLKLILAKERTLNLPYMEEMRKEIIAVIQKYTKSSDIHFKTLDSNQSVETIEVEIILPR,soluble
3,GSHMSLSNKLTLDKLDVKGKRVVMRVDFNVPMKNNQITNNQRIKAAVPSIKFCLDNGAKSVVLMSHLGRPDGVPMPDKYSLEPVAVELKSLLGKDVLFLKDCVGPEVEKACANPAAGSVILLENLRFHVEEEGKGKDASGNKVKAEPAKIEAFRASLSKLGDVYVNDAFGTAHRAHSSMVGVNLPQKAGGFLMKKELNYFAKALESPERPFLAILGGAKVADKIQLINNMLDKVNEMIIGGGMAFTFLKVLNNMEIGTSLFDEEGAKIVKDLMSKAEKNGVKITLPVDFVTADKFDENAKTGQATVASGIPAGWMGLDCGPESSKKYAEAVTRAKQIVWNGPVGVFEWEAFARGTKALMDEVVKATSRGCITIIGGGDTATCCAKWNTEDKVSHVSTGGGASLELLEGKVLPGVDALSNI,soluble
4,GSHMSSPVNEEENSQRISTLHHQTMPSDLTQDEFTQLSQSIAEFHTYQLGNGRCSSLLAQRIHAPPETVWSVVRRFDRPQIYKHFIKSCNVSEDFEMRVGCTRDVNVISGLPANTSRERLDLLDDDRRVTGFSITGGEHRLRNYKSVTTVHRFEKEEEEERIWTVVLESYVVDVPEGNSEEDTRLFADTVIRLNLQKLASITEAMNRN,soluble
5,GSKPVSEKIMEIKLIKGPKGLGFSIAGGVGNQHWPGDNSIYVTKIIEGGAAHKDGKLQIGDKLLAVNNVALEEVTHEEAVTALKNTSDFVYLKVAKPTS,soluble
6,GSLTTISSILSLKREKPDNLAIILQIDFTKLKEEDSLIVVYNSLKALTIKFARLQFCFVDRNNYVLDYGSVLHKIDSLDSISNLKSKSSSTQFSPIWLKNTLYPENIHEHLGIVAVSNSNMEAKKSILFQDYRCFTSFGRRRPNELKIKVGYLNVDYSDKIDELVEASSWTFVLETLCYSFGLSFDEHDDDDEEDN,soluble
7,GSMETSMPEYYEVFGEFRGVLMDKRFTKYWEDVEMFLARPDDLVIATYPKSGTTWISEVVYMIYKEGDVEKCKEDAIFNRIPYLECRNEDLINGIKQLKEKESPRIVKTHLPPKLLPASFWEKNCKMIYLCRNAKDVAVSYYYFLLMITSYPNPKSFSEFVEKFMQGQVPYGSWYDHVKAWWEKSKNSRVLFMFYEDMKEDIRREVVKLIEFLERKPSAELVDRIIQHTSFQEMKNNPSTNYTMMPEEMMNQKVSPFMRKGIIGDWKNHFPEALRERFDEHYKQQMKDCTVKFRMEL,soluble
8,GSMKTIKVKNKTEGSKVAFRMLEEEITFGAKTLGLATGSTPLELYKEIRESHLDFSDMVSINLDEYVGLSADDKQSYAYFMKQNLFAAKPFKKSYLPNGLAADLAKETEYYDQILAQYPIDLQILGIGRNAHIGFNEPGTAFSSQTHLVDLTPSTIAANSRFFEKAEDVPKQAISMGLASIMSAKMILLMAFGEEKAEAVAAMVKGPVTEEIPASILQTHPKVILIVDEKAGAGI,soluble
9,GSMPAIMTMLADHAARQLLDFSQKLDINLLDNVVNCLYHGEGAQQRMAQEVLTHLKEHPDAWTRVDTILEFSQNMNTKYYGLQILENVIKTRWKILPRNQCEGIKKYVVGLIIKTSSDPTCVEKEKVYIGKLNMILVQILKQEWPKHWPTFISDIVGASRTSESLCQNNMVILKLLSEEVFDFSSGQITQVKAKHLKDSMCNEFSQIFQLCQFVMENSQNAPLVHATLETLLRFLNWIPLGYIFETKLISTLIYKFLNVPMFRNVSLKCLTEIAGVSVSQYEEQFETLFTLTMMQLKQMLPLNTNIRLAYSNGKDDEQNFIQNLSLFLCTFLKEHGQLLEKRLNLREALMEALHYMLLVSEVEETEIFKICLEYWNHLAAELYRESPFSTSASPLLSGSQHFDIPPRRQLYLTVLSKVRLLMVSRMAKPEEVLVVENDQGEVVREFMKDTDSINLYKNMRETLVYLTHLDYVDTEIIMTKKLQNQVNGTEWSWKNLNTLCWAIGSISGAMHEEDEKRFLVTVIKDLLGLCEQKRGKDNKAIIASNIMYIVGQYPRFLRAHWKFLKTVVNKLFEFMHETHDGVQDMACDTFIKIAQKCRRHFVQVQVGEVMPFIDEILNNINTIICDLQPQQVHTFYEAVGYMIGAQTDQTVQEHLIEKYMLLPNQVWDSIIQQATKNVDILKDPETVKQLGSILKTNVRACKAVGHPFVIQLGRIYLDMLNVYKCLSENISAAIQANGEMVTKQPLIRSMRTVKRETLKLISGWVSRSNDPQMVAENFVPPLLDAVLIDYQRNVPAAREPEVLSTMAIIVNKLGGHITAEIPQIFDAVFECTLNMINKDFEEYPEHRTNFFLLLQAVNSHCFPAFLAIPPAQFKLVLDSIIWAFKHTMRNVADTGLQILFTLLQNVAQEEAAAQSFYQTYFCDILQHIFSVVTDTSHTAGLTMHASILAYMFNLVEEGKISTPLNPGNPVNNQMFIQDYVANLLKSAFPHLQDAQVKLFVTGLFSLNQDIPAFKEHLRDFLVQIKEFAGEDTSDLFLEERETALRQAQEEKHKLQMSVPGILNPHEIPEEMCD,soluble
10,GSPGISGGGGGILDMADDDVLFEDVYELCEVIGKGAFSVVRRCINRETGQQFAVKIVDVAKFTSSPGLSTEDLKREASICHMLKHPHIVELLETYSSDGMLYMVFEFMDGADLCFEIVKRADAGFVYSEAVASHYMRQILEALRYCHDNNIIHRDVKPENVLLASKENSAPVKLGDFGVAIQLGESGLVAGGRVGTPHFMAPEVVKREPYGKPVDVWGCGVILFILLSGCLPFYGTKERLFEGIIKGKYKMNPRQWSHISESAKDLVRRMLMLDPAERITVYEALNHPWLKERDRYAYKIHLPETVEQLRKFNARRKLKGAVLAAVSSHKFNSFYGDPPEELPDFSEDPTS,soluble
11,GSSALLDTDEVGSELDDSDDDYLISEGEEDGPDENLMLCLYDKVTRTKARWKCSLKDGVVTINRNDYTFQKAQVEAEWV,soluble
12,GSSCGNDESDPDSTVTIAMATVEKQPQYDAPYLVLDNGEKLWVVQHIVPYRDLKAGERIFGNYSFLEAGESGFAYNIRLNDYTLVPVQKIIGLNPDNMDSIGNMKVQIKDMWPSDDYLNVRFMLNFPSPQKPILNLVVNEMIPWTKDGYAHLELRYNNNGSQGRLVPGMVSFKLDDYSPENSELKGIKVLVNPVDGEEKTYIFSYPLTGEDVPGFNPLDLAELK,soluble
13,GSSEEESFFVQVHDVSPEQPRTVIKAPRVSTAQDVIQQTLCKAKYSLSILSNPNPSDYVLLEEVVKDTTNKKTTTPKSSQRVLLDQECVFQAQSKWKGAGKFILKLKEQVQASREDK,soluble
14,GSSGSSGMQLEIQVALNFIISYLYNKLPRRRVNIFGEELERLLKKKYEGHWYPEKPYKGSGFRCIHIGEKVDPVIEQASKESGLDIDDVRGNLPQDLSVWIDPFEVSYQIGEKGPVKVLYVDDNSGPSSG,soluble
15,GSTDSLPGKFEDMYKLTSELLGEGAYAKVQGAVSLQNGKEYAVKIIEKQAGHSRSRVFREVETLYQCQGNKNILELIEFFEDDTRFYLVFEKLQGGSILAHIQKQKHFNEREASRVVRDVAAALDFLHTKGIAHRDLKPENILCESPEKVSPVKICDFDLGSGMKLNNSCTPITTPELTTPCGSAEYMAPEVVEVFTDQATFYDKRCDLWSLGVVLYIMLSGYPPFVGHCGADCGWDRGEVCRVCQNKLFESIQEGKYEFPDKDWAHISSEAKDLISKLLVRDAKQRLSAAQVLQHPWVQGQAPEKG,soluble
16,GVTYLLAKRKILYFEAVESKIFVYTEKDVYETTWKLYELEEKFKDSSFFRCSKSMILNIEWIEKIAPGFHGKFEASLFNREKVIISRQYAKILKQKLNLGGKGK,not soluble
17,GVVNVVVPQYVNCPDVCHWESAIMIYLMGELVERGLQDKVVFVTIGVNPYYETIEDGKRYMESVAGDYLDKGVKWIWVLDDVEKQEELWNMFGIAVSLYCVKNDGSIIDELTYDDYLKLEESGECSFVGVNHTAGFIIVDGDGVFRYFMSPTEDGWKRGQRQVAETILQYILKLVEERK,not soluble
18,GYIDTGLYQNKEDILNSPRRLGSTQTKLGDIGYTDVNGDGKIDGEDQVRIGKPTMPHFTYAFDFSLGYEGFTLSGLLYGTGERYMTFGNRYQSGEGKYLYYENQLNYWRPDNTGADFPRISISSGVNGNNNKAGSTFWMRNASYLRLKDLQLSYDFKYKYLKKCDWLQTCRVNLSGSNLFTISGVSKFFDPETSSTSGDGYPVQRVYSIGVTIGF,not soluble
19,HATMEPLNCFVDLQSDSCLIRTGSQFQTGDRNAAARVAGLKPEQVTLETTFLGGGFGRRACPASDFVIEAVQVAKTVGKPVMVIRTREDDMRAG,not soluble
20,HELLSREEVESILSENQLLLQVTPTAPPKTPLSVCFYQVSLEIDRPQSPLVSQSAFEEAATLYNLLPKVDSWICEQLLVDHAQAIHQKGLALAIPLSEAALLKEDFRQSLLTLVQQTLLPPQSLYWMIDESTLLQYPFAIGNFLAKLQQPGCKLIVKEFGHNLNDFELLAEHHIDYLKFNSELIAHIHINQMDEVLISIINGTAQRANIATLAGPVELPPTLSKLIDIGVDLADGTMIGRTEPLSEVLNSSYFAIK,soluble
21,HFRRSLRHIFRRRSAGELPAAHTAAAPGTPGEAAETPARPGLAKKFLPWSLAREPPPEALKEAVLRYSLADEASMDSGARWQRGRLALRRAPGPDGPDRVLELFDPPKSSRPKLQAACSSIQEVRRCTRLEMPDNLYTFVLKVKDRTDIIFEVGDEQQLNSWMAELSECTGRGLESTEAEMHIPSALEPSTSSSPRGSTDSLNQGASPGGLLDPACQKTDHFLSCYPWFHGPISRVKAAQLVQLQGPDAHGVFLVRQSETRRGEYVLTFNFQGIAKHLRLSLTERGQCRVQHLHFPSVVDMLHHFQRSPIPLECGAACDVRLSSYVVVVSQPPGSCNTVLFPFSLPHWDSESLPHWGSELGLPHLSSSGCPRGLSPEGLPGRSSPPEQIFHLVPSPEELANSLQHLEHEPVNRARDSDYEMDSSSRSHLRAIDNQYTPL,soluble
22,HGDGPGNAVQEIMIPASKAGLVIGKGGETIKQLQERAGVKMVMIQDGPQNTGADKPLRITGDPYKVQQAKEMVLELIRDQG,soluble
23,HHHHHHHSEMTPREIVSELDKHIIGQDNAKRSVAIALRNRWRRMQLNEELRHEVTPKNILMIGPTGVGKTEIARRLAKLANAPFIKVEATKFTEVGYVGKEVDSIIRDLTDAAVKMVRVQAIEKNRYRAEELAEERILDVLIPPAKNNWGQTEQQQEPSAARQAFRKKLREGQLDDKEIEIDLAAAPMGVEIMAPPGMEEMTSQLQSMFQNLGGQKQKARKLKIKDAMKLLIEEEAAKLVNPEELKQDAIDAVEQHGIVFIDEIDKICKRGESSGPDVSREGVQRDLLPLVEGCTVSTKHGMVKTDHILFIASGAFQIAKPSDLIPELQGRLPIRVELQALTTSDFERILTEPNASITVQYKALMATEGVNIEFTDSGIKRIAEAAWQVNESTENIGARRLHTVLERLMEEISYDASDLSGQNITIDADYVSKHLDALVADEDLSRFIL,soluble

# Source: the DeepSol protein solubility set
